Test results reported in patent US12099068B2, “Biomarkers for graft-versus-host disease” (Incyte Corporation, priority 2018, dated 2024).

B1: TMPRSS5 (protein, UniProt Q9H3S3 1-457, looked up)
Transmembrane protease serine …: MSLMLDDQPPMEAQYAEEGPGPGIFRAEPGDQQHPISQAVCWRSMRRGCAVLGALGLLAGAGVGSWLLVLYLCPAASQPISGTLQDEEITLSCSEASAEEALLPALPKTVSFRINSEDFLLEAQVRDQPRWLLVCHEGWSPALGLQICWSLGHLRLTHHKGVNLTDIKLNSSQEFAQLSPRLGGFLEEAWQPRNNCTSGQVVSLRCSECGARPLASRIVGGQSVAPGRWPWQASVALGFRHTCGGSVLAPRWVVTAAHCMHSFRLARLSSWRVHAGLVSHSAVRPHQGALVERIIPHPLYSAQNHDYDVALLRLQTALNFSDTVGAVCLPAKEQHFPKGSRCWVSGWGHTHPSHTYSSDMLQDTVVPLFSTQLCNSSCVYSGALTPRMLCAGYLDGRADACQGDSGGPLVCPDGDTWRLVGVVSWGRGCAEPNHPGVYAKVAEFLDWIHDTAQDSLL
B2: TLT-2 (protein, UniProt Q5T2D2 19-321, looked up)
Trem-like transcript 2 protein: GPSADSVYTKVRLLEGETLSVQCSYKGYKNRVEGKVWCKIRKKKCEPGFARVWVKGPRYLLQDDAQAKVVNITMVALKLQDSGRYWCMRNTSGILYPLMGFQLDVSPAPQTERNIPFTHLDNILKSGTVTTGQAPTSGPDAPFTTGVMVFTPGLITLPRLLASTRPASKTGYSFTATSTTSQGPRRTMGSQTVTASPSNARDSSAGPESISTKSGDLSTRSPTTGLCLTSRSLLNRLPSMPSIRHQDVYSTVLGVVLTLLVLMLIMVYGFWKKRHMASYSMCSDPSTRDPPGRPEPYVEVYLI
B3: CLUL1 (protein, UniProt Q15846 21-466, looked up)
Clusterin-like protein 1: APTWKDKTAISENLKSFSEVGEIDADEEVKKALTGIKQMKIMMERKEKEHTNLMSTLKKCREEKQEALKLLNEVQEHLEEEERLCRESLADSWGECRSCLENNCMRIYTTCQPSWSSVKNKIERFFRKIYQFLFPFHEDNEKDLPISEKLIEEDAQLTQMEDVFSQLTVDVNSLFNRSFNVFRQMQQEFDQTFQSHFISDTDLTEPYFFPAFSKEPMTKADLEQCWDIPNFFQLFCNFSVSIYESVSETITKMLKAIEDLPKQDKAPDHGGLISKMLPGQDRGLCGELDQNLSRCFKFHEKCQKCQAHLSEDCPDVPALHTELDEAIRLVNVSNQQYGQILQMTRKHLEDTAYLVEKMRGQFGWVSELANQAPETEIIFNSIQVVPRIHEGNISKQDETMMTDLSILPSSNFTLKIPLEESAESSNFIGYVVAKALQHFKEHFKTW
B4: IL2-RA (protein, UniProt P01589 22-272, looked up)
Interleukin-2 receptor …: ELCDDDPPEIPHATFKAMAYKEGTMLNCECKRGFRRIKSGSLYMLCTGNSSHSSWDNQCQCTSSATRNTTKQVTPQPEEQKERKTTEMQSPMQPVDQASLPGHCREPPPWENEATERIYHFVVGQMVYYQCVQGYRALHRGPAESVCKMTHGKTRWTQPQLICTGEMETSQFPGEEKPQASPEGRPESETSCLVTTTDFQIQTEMAATMETSIFTTEYQVAVAGCVFLLISVLLLSGLTWQRRQRKSRRTI
B5: SELP (protein, UniProt P16109 42-830, looked up)
P-selectin: WTYHYSTKAYSWNISRKYCQNRYTDLVAIQNKNEIDYLNKVLPYYSSYYWIGIRKNNKTWTWVGTKKALTNEAENWADNEPNNKRNNEDCVEIYIKSPSAPGKWNDEHCLKKKHALCYTASCQDMSCSKQGECLETIGNYTCSCYPGFYGPECEYVRECGELELPQHVLMNCSHPLGNFSFNSQCSFHCTDGYQVNGPSKLECLASGIWTNKPPQCLAAQCPPLKIPERGNMTCLHSAKAFQHQSSCSFSCEEGFALVGPEVVQCTASGVWTAPAPVCKAVQCQHLEAPSEGTMDCVHPLTAFAYGSSCKFECQPGYRVRGLDMLRCIDSGHWSAPLPTCEAISCEPLESPVHGSMDCSPSLRAFQYDTNCSFRCAEGFMLRGADIVRCDNLGQWTAPAPVCQALQCQDLPVPNEARVNCSHPFGAFRYQSVCSFTCNEGLLLVGASVLQCLATGNWNSVPPECQAIPCTPLLSPQNGTMTCVQPLGSSSYKSTCQFICDEGYSLSGPERLDCTRSGRWTDSPPMCEAIKCPELFAPEQGSLDCSDTRGEFNVGSTCHFSCDNGFKLEGPNNVECTTSGRWSATPPTCKGIASLPTPGVQCPALTTPGQGTMYCRHHPGTFGFNTTCYFGCNAGFTLIGDSTLSCRPSGQWTAVTPACRAVKCSELHVNKPIAMNCSNLWGNFSYGSICSFHCLEGQLLNGSAQTACQENGHWSTTVPTCQAGPLTIQEALTYFGGAVASTIGLIMGGTLLALLRKRFRQKDDGKCPLNPHSHLGTYGVFTNAAFDPSP
B6: SCGB3A1 (protein, UniProt Q96QR1 21-104, looked up)
Secretoglobin family 3A …: FLVGSAKPVAQPVAALESAAEAGAGTLANPLGTLNPLKLLLSSLGIPVNHLIEGSQKCVAELGPQAVGAVKALKALLGALTVFG
B7: hK11 (protein, UniProt Q9UBX7 54-282, looked up)
Kallikrein-11: IIKGFECKPHSQPWQAALFEKTRLLCGATLIAPRWLLTAAHCLKPRYIVHLGQHNLQKEEGCEQTRTATESFPHPGFNNSLPNKDHRNDIMLVKMASPVSITWAVRPLTLSSRCVTAGTSCLISGWGSTSSPQLRLPHTLRCANITIIEHQKCENAYPGNITDTMVCASVQEGGKDSCQGDSGGPLVCNQSLQGIISWGQDPCAITRKPGVYTKVCKYVDWIQETMKNN
B8: CEACAM5 (protein, UniProt P06731 35-685, looked up)
Cell adhesion molecule CEACAM5: KLTIESTPFNVAEGKEVLLLVHNLPQHLFGYSWYKGERVDGNRQIIGYVIGTQQATPGPAYSGREIIYPNASLLIQNIIQNDTGFYTLHVIKSDLVNEEATGQFRVYPELPKPSISSNNSKPVEDKDAVAFTCEPETQDATYLWWVNNQSLPVSPRLQLSNGNRTLTLFNVTRNDTASYKCETQNPVSARRSDSVILNVLYGPDAPTISPLNTSYRSGENLNLSCHAASNPPAQYSWFVNGTFQQSTQELFIPNITVNNSGSYTCQAHNSDTGLNRTTVTTITVYAEPPKPFITSNNSNPVEDEDAVALTCEPEIQNTTYLWWVNNQSLPVSPRLQLSNDNRTLTLLSVTRNDVGPYECGIQNELSVDHSDPVILNVLYGPDDPTISPSYTYYRPGVNLSLSCHAASNPPAQYSWLIDGNIQQHTQELFISNITEKNSGLYTCQANNSASGHSRTTVKTITVSAELPKPSISSNNSKPVEDKDAVAFTCEPEAQNTTYLWWVNGQSLPVSPRLQLSNGNRTLTLFNVTRNDARAYVCGIQNSVSANRSDPVTLDVLYGPDTPIISPPDSSYLSGANLNLSCHSASNPSPQYSWRINGIPQQHTQVLFIAKITPNNNGTYACFVSNLATGRNNSIVKSITVSASGTSPGLSA
B9: SLITRK2 (protein, UniProt Q9H156 22-845, looked up)
SLIT and NTRK-like protein 2: RKTAKDICKIRCLCEEKENVLNINCENKGFTTVSLLQPPQYRIYQLFLNGNLLTRLYPNEFVNYSNAVTLHLGNNGLQEIRTGAFSGLKTLKRLHLNNNKLEILREDTFLGLESLEYLQADYNYISAIEAGAFSKLNKLKVLILNDNLLLSLPSNVFRFVLLTHLDLRGNRLKVMPFAGVLEHIGGIMEIQLEENPWNCTCDLLPLKAWLDTITVFVGEIVCETPFRLHGKDVTQLTRQDLCPRKSASDSSQRGSHADTHVQRLSPTMNPALNPTRAPKASRPPKMRNRPTPRVTVSKDRQSFGPIMVYQTKSPVPLTCPSSCVCTSQSSDNGLNVNCQERKFTNISDLQPKPTSPKKLYLTGNYLQTVYKNDLLEYSSLDLLHLGNNRIAVIQEGAFTNLTSLRRLYLNGNYLEVLYPSMFDGLQSLQYLYLEYNVIKEIKPLTFDALINLQLLFLNNNLLRSLPDNIFGGTALTRLNLRNNHFSHLPVKGVLDQLPAFIQIDLQENPWDCTCDIMGLKDWTEHANSPVIINEVTCESPAKHAGEILKFLGREAICPDSPNLSDGTVLSMNHNTDTPRSLSVSPSSYPELHTEVPLSVLILGLLVVFILSVCFGAGLFVFVLKRRKGVPSVPRNTNNLDVSSFQLQYGSYNTETHDKTDGHVYNYIPPPVGQMCQNPIYMQKEGDPVAYYRNLQEFSYSNLEEKKEEPATPAYTISATELLEKQATPREPELLYQNIAERVKELPSAGLVHYNFCTLPKRQFAPSYESRRQNQDRINKTVLYGTPRKCFVGQSKPNHPLLQAKPQSEPDYLEVLEKQTAISQL
B10: NCF2 (protein, UniProt P19878 1-526, looked up)
Neutrophil cytosol factor 2: MSLVEAISLWNEGVLAADKKDWKGALDAFSAVQDPHSRICFNIGCMYTILKNMTEAEKAFTRSINRDKHLAVAYFQRGMLYYQTEKYDLAIKDLKEALIQLRGNQLIDYKILGLQFKLFACEVLYNIAFMYAKKEEWKKAEEQLALATSMKSEPRHSKIDKAMECVWKQKLYEPVVIPVGKLFRPNERQVAQLAKKDYLGKATVVASVVDQDSFSGFAPLQPQAAEPPPRPKTPEIFRALEGEAHRVLFGFVPETKEELQVMPGNIVFVLKKGNDNWATVMFNGQKGLVPCNYLEPVELRIHPQQQPQEESSPQSDIPAPPSSKAPGRPQLSPGQKQKEEPKEVKLSVPMPYTLKVHYKYTVVMKTQPGLPYSQVRDMVSKKLELRLEHTKLSYRPRDSNELVPLSEDSMKDAWGQVKNYCLTLWCENTVGDQGFPDEPKESEKADANNQTTEPQLKKGSQVEALFSYEATQPEDLEFQEGDIILVLSKVNEEWLEGECKGKVGIFPKVFVEDCATTDLESTRREV
B11: CXCL16 (protein, UniProt Q9H2A7 30-254, looked up)
C-X-C motif chemokine 16: NEGSVTGSCYCGKRISSDSPPSVQFMNRLRKHLRAYHRCLYYTRFQLLSWSVCGGNKDPWVQELMSCLDLKECGHAYSGIVAHQKHLLPTSPPISQASEGASSDIHTPAQMLLSTLQSTQRPTLPVGSLSSDKELTRPNETTIHTAGHSLAAGPEAGENQKQPEKNAGPTARTSATVPVLCLLAIIFILTAALSYVLCKRRRGQSPQSSPDLPVHYIPVAPDSNT
B12: DAPP1 (protein, UniProt Q9UN19 1-280, looked up)
Dual adapter for …: MGRAELLEGKMSTQDPSDLWSRSDGEAELLQDLGWYHGNLTRHAAEALLLSNGCDGSYLLRDSNETTGLYSLSVRAKDSVKHFHVEYTGYSFKFGFNEFSSLKDFVKHFANQPLIGSETGTLMVLKHPYPRKVEEPSIYESVRVHTAMQTGRTEDDLVPTAPSLGTKEGYLTKQGGLVKTWKTRWFTLHRNELKYFKDQMSPEPIRILDLTECSAVQFDYSQERVNCFCLVFPFRTFYLCAKTGVEADEWIKILRWKLSQIRKQLNQGEGTIRSRSFIFK
B13: PRDX5 (protein, UniProt P30044 53-214, looked up)
Peroxiredoxin-5, mitochondrial: MAPIKVGDAIPAVEVFEGEPGNKVNLAELFKGKKGVLFGVPGAFTPGCSKTHLPGFVEQAEALKAKGVQVVACLSVNDAFVTGEWGRAHKAEGKVRLLADPTGAFGKETDLLLDDSLVSIFGNRRLKRFSMVVQDGIVKALNVEPDGTGLTCSLAPNIISQL

test system: plasma proteins; assay: Plasma proteins modulated between baseline and day 28 in responders (CR, VGPR, PR; n = 19), Example 6 (Table 13); assay type: in vivo, human; conditions: plasma protein (OLINK NPX); responders (CR, VGPR, PR; n = 19); itacitinib 200 mg or 300 mg QD with corticosteroids; day 28 vs baseline
In short: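 Longitudinal comparison, day 28 versus baseline, with steroid-naive (N=10) and steroid-refractory (N=18) patients combined. Proteins measured by OLINK proximity extension, log2 normalized protein expression. Differences tested by t tests, ANOVA, Pearson correlation, P<0.05 significant.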

Going from B1 to B3, the “Fold Change, Increased Expression from Baseline to Day 28” value (from here on “Fold Change, Increased Expression”) falls from 1.3307 to 1.3108.

Going from B6 to B7, the “Fold Change, Increased Expression” value falls from 1.5691 to 1.2975.

Going from B8 to B9, the “Fold Change, Increased Expression” value falls from 1.6422 to 1.2986.

For B11, the “Fold Change, Increased Expression” value was 1.2028.

Compared with B2, B4 is lower in “Fold Change, Decreased Expression from Baseline to Day 28” value (“Fold Change, Decreased Expression” for short): −1.8372 for the first, −2.2452 for the second.

Compared with B5, B10 is lower in “Fold Change, Decreased Expression” value: −1.9244 for the first, −2.4951 for the second.

First: B12
Second: B13
The “Fold Change, Decreased Expression” value of the first is higher: −1.3805 for the first, −2.0131 for the second.
